According to patent US20240131155A1, “T CELLS FOR USE IN THERAPY” (Erasmus University Medical Center Rotterdam, priority 2021, published 2024):
One block for each binder: values may come before it.

Experiments:
[1] = target: T1, HLA-A2 (HLA-A2:01) on T2 cells (human); experiment: HLA-A2 stabilization assay on T2 cells, peptide titration; EC50 calculated with GraphPad [panel E]
T1 construct: detected with anti-HLA-A2 mAb BB7.2

[2] = target: T1, HLA-A2 (HLA-A2:01) on T2 cells; experiment: HLA-A2 stabilization assay on T2 cells, peptide titration; EC50 calculated with GraphPad [panel D]
[3] = target: T1, HLA-A2 (HLA-A2:01) on T2 cells; experiment: HLA-A2 stabilization assay on T2 cells, peptide titration; amplitude relative to that of reference peptide YLE [panel D]
[4] = target: T1, HLA-A2 (HLA-A2:01) on T2 cells; experiment: HLA-A2 stabilization assay on T2 cells, peptide titration; amplitude = highest data point corrected for baseline [panel E]
[5] = target: T1, HLA-A2 (HLA-A2:01) on T2 cells; experiment: HLA-A2 stabilization assay on T2 cells (anti-HLA-A2-PE, flow cytometry), single peptide concentration [panel D]
[6] = target: T1, HLA-A2 (HLA-A2:01) on T2 cells; experiment: HLA-A2 stabilization assay on T2 cells (anti-HLA-A2-PE, flow cytometry), single peptide concentration 25 ug/mL [panel E]
[7] = target: T1, HLA-A2 (HLA-A2:01) on T2 cells; experiment: HLA-A2 stabilization assay on T2 cells (anti-HLA-A2-PE, flow cytometry), single peptide concentration [panel C; D00007 Figure 3 continued, panel E]
[8] = target: T1, HLA-A2 (HLA-A2:01) on T2 cells; experiment: HLA-A2 stabilization assay on T2 cells, peptide titration; amplitude relative to that of reference peptide YLE; EC50 cell is 'x' [panel D]
[9] = target: T2, ROPN1B epitope 1 (MLN) with alanine at position 6 peptide on HLA-A*02:01 (human); experiment: cytokine release
T2 peptide: MLNYIAQEV

[10] = target: T3, ROPN1B epitope 1 (MLN) with alanine at position 8 peptide on HLA-A*02:01 (human); experiment: cytokine release
T3 peptide: MLNYIEQAV

[11] = target: T4, ROPN1B epitope 1 (MLN) with alanine at position 9 peptide on HLA-A*02:01 (human); experiment: cytokine release
T4 peptide: MLNYIEQEA

[12] = target: T5, ROPN1 (counterpart of the ROPN1B MLN epitope, one residue different) peptide on HLA-A*02:01 (human); experiment: cytokine release
T5 peptide: MLNYMEQEV

[13] = target: T6, gp100 peptide on HLA-A*02:01 (human); experiment: cytokine release
T6 peptide: YLEPGPVTA

[14] = target: T7, ROPN1B peptide on HLA-A*02:01 (human); experiment: multimer staining
T7 peptide: MLNYIEQEV

[15] = target: MLN epitope (…) presented by HLA-A2 on cells (human); experiment: cell-based or functional assay

EC50 [1]: 5.08 µM
EC50 [2]: 5.08 µM
Amplitude [3]: 0.93 relative to YLE
Amplitude [4]: 4220 geometric mean normalized to baseline
Binder: SLLMWITQV (also called NY-ESO peptide SLL) [NY-ESO1 peptide SLLMWITQV]

Minimum stability [5]: 0.91 fold change over baseline
Minimum stability [6]: 0.91 fold change over baseline
binding result [7]: no binding (tested: 25 ug/mL)
Binder: RLIIRAEEL (ROPN1 and ROPN1B, predicted)

Minimum stability [5]: 1.41 fold change over baseline
Minimum stability [6]: 1.16 fold change over baseline
Amplitude [8]: 0.939 relative to YLE
Binder: YIAEVDGEI (ROPN1B, predicted)

binding result [9]: recognises
binding result [10]: recognises
binding result [11]: recognises
binding result [12]: no recognition
binding result [13]: no recognition
binding result [14]: recognises
B1: MLN-TCR2 (TCR, V domains shown)
Valpha: GEDVEQSLFLSVREGDSSVINCTYTDSSSTYLYWYKQEPGAGLQLLTYIFSNMDMKQDQRLTVLLNKKDKHLSLRIADTQTGDSAIYFCAEDGGGSYIPTFGRGTSLIVHP
Vbeta: EAGVTQFPSHSVIEKGQTVTLRCDPISGHDNLYWYRRVMGKEIKFLLHFVKESKQDESGMPNNRFLAERTGGTYSTLKVQPAELEDSGVYFCASSPGPGQNSPLHFGNGTRLTVT

EC50 of T cell IFN-gamma production, peptide titration on BSM cells [15]: 0.011 µM
B2: MLN-TCR2 (epitope 1 (MLN)-specific TCR) (TCR, V domains shown)
V domain 1: RGEDVEQSLFLSVREGDSSVINCTYTDSSSTYLYWYKQEPGAGLQLLTYIFSNMDMKQDQRLTVLLNKKDKHLSLRIADTQTGDSAIYFCAEDGGGSYIPTFGRGTSLIVHP
V domain 2: EAGVTQFPSHSVIEKGQTVTLRCDPISGHDNLYWYRRVMGKEIKFLLHFVKESKQDESGMPNNRFLAERTGGTYSTLKVQPAELEDSGVYFCASSPGPGQNSPLHFGNGTRLTVTE
